# From patent US20220195064A1 (Memorial Sloan Kettering, published 2022)
# T1: recombinant extracellular domain of murine CD371 (Thr 67-Arg 267) with polyhistidine tag (murine, UniProt Q504P2 67-267)
# T1 construct: range 67-267; also called mouse homolog of CD371; not shown: polyhistidine tag
# T1 sequence (looked up): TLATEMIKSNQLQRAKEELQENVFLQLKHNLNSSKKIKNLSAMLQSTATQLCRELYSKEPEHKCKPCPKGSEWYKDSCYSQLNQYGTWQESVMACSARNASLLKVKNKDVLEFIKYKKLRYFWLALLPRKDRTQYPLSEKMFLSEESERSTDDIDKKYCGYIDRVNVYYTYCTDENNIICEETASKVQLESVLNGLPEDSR
# T2: recombinant soluble human CD371 extracellular domain (His 65-Ala 265) with polyhistidine tag (human, UniProt Q5QGZ9 65-265, biotinylated in the scFv BLI measurements (site not stated))
# T2 construct: range 65-265; also called soluble CD371; recombinant CD371; not shown: polyhistidine tag
# T2 sequence (looked up): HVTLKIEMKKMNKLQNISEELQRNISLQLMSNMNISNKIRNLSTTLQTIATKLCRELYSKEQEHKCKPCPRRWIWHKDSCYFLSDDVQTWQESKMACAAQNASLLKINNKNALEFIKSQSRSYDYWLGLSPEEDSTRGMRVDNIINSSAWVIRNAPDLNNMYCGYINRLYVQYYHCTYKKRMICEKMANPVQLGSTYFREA
# T3: human CD371 on the cell surface (OCI AML cells; HEK293 cells expressing human CD371) (human, UniProt Q5QGZ9 1-265)
# T3 construct: whole, on cells; The transfected construct is not specified further; also called CD371 cells; CD371+ AML cell line OCI
# T3 sequence (looked up): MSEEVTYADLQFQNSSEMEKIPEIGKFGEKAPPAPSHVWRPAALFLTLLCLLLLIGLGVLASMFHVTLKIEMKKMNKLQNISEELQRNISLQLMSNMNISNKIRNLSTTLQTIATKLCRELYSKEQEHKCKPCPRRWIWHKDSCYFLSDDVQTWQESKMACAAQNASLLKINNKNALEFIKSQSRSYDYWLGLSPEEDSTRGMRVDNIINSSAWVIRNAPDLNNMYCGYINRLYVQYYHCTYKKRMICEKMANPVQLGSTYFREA
# B1: B031_P1_PH1C3 monoclonal phage prep (scFv displayed on phage) (scFv, V domains shown)
# VH: EVQLLESGGGLVQPGGSLRLSCAASGFTFTSYAMSWVRQAPGKGLEWVSGIDGSGGGTNYADSVKGRFTISRDNSKNTLYLQMNSLRAEDTAVYYCARAYYDILTGYPVDGMDVWGQGTTVTVSS
# VL: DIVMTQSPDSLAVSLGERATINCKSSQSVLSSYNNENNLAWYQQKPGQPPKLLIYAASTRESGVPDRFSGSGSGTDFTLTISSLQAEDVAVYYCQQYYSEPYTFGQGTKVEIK
# notes: Tested as an scFv on M13 phage
# B2: B031_P1_PH1D6 monoclonal phage prep (scFv displayed on phage) (scFv, V domains shown)
# VH: EVQLLESGGGLVQPGGSLRLSCAASGFTFTDYAMSWVRQAPGKGLEWVSDIDGSGGSTDYADSVKGRFTISRDNSKNTLYLQMNSLRAEDTAVYYCALELGATTVYWGQGTLVTVSS
# VL: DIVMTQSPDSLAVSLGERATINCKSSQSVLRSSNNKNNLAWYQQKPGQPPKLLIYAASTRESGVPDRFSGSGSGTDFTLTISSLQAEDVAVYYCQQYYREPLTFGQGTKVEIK
# notes: as for B1
# B3: B10 scFv-Fc fusion, VL-VH orientation (Fc fusion)
# chain: DIVMTQSPDSLAVSLGERATINCKSSQSVLDSYNNENNLAWYQQKPGQPPKLLIYWASTRESGVPDRFSGSGSGTDFTLTISSLQAEDVAVYYCQQYTSEPITFGQGTKVEIKGGGGSGGGGSGGGSGGGGSEVQLLESGGGLVQPGGSLRLSCAASGFTFSDYQMSWVRQAPGKGLEWVSGIQGGGGSTYYADSVKGRFTISRDNSKNTLYLQMNSLRAEDTAVYYCAREMWRGDYYSGMDVWGQGTTVTVSS
# notes: also called VL-VH-Fc; not shown: Fc region
# B4: B10 scFv in the VL-VH orientation (scFv)
# scFv: DIVMTQSPDSLAVSLGERATINCKSSQSVLDSYNNENNLAWYQQKPGQPPKLLIYWASTRESGVPDRFSGSGSGTDFTLTISSLQAEDVAVYYCQQYTSEPITFGQGTKVEIKGGGGSGGGGSGGGSGGGGSEVQLLESGGGLVQPGGSLRLSCAASGFTFSDYQMSWVRQAPGKGLEWVSGIQGGGGSTYYADSVKGRFTISRDNSKNTLYLQMNSLRAEDTAVYYCAREMWRGDYYSGMDVWGQGTTVTVSS
# notes: Soluble scFv; also called VL-VH scFv; 1B10 scFv VL-VH
# B5: B10 scFv-Fc fusion, VH-VL orientation (Fc fusion)
# chain: EVQLLESGGGLVQPGGSLRLSCAASGFTFSDYQMSWVRQAPGKGLEWVSGIQGGGGSTYYADSVKGRFTISRDNSKNTLYLQMNSLRAEDTAVYYCAREMWRGDYYSGMDVWGQGTTVTVSSGGGGSGGGGSGGGSGGGGSDIVMTQSPDSLAVSLGERATINCKSSQSVLDSYNNENNLAWYQQKPGQPPKLLIYWASTRESGVPDRFSGSGSGTDFTLTISSLQAEDVAVYYCQQYTSEPITFGQGTKVEIK
# notes: also called VH-VL-Fc; not shown: Fc region
# B6: B10 reformatted to human IgG1 (antibody, V domains shown)
# VH: EVQLLESGGGLVQPGGSLRLSCAASGFTFSDYQMSWVRQAPGKGLEWVSGIQGGGGSTYYADSVKGRFTISRDNSKNTLYLQMNSLRAEDTAVYYCAREMWRGDYYSGMDVWGQGTTVTVSS
# VL: not shown
# notes: Human IgG1; also called 1B10 IgG1; B031_P1_PH1B10 IgG1
# B7: B031_P1_PH1B10 monoclonal phage prep (scFv displayed on phage) (scFv, V domains shown)
# VH: EVQLLESGGGLVQPGGSLRLSCAASGFTFSDYQMSWVRQAPGKGLEWVSGIQGGGGSTYYADSVKGRFTISRDNSKNTLYLQMNSLRAEDTAVYYCAREMWRGDYYSGMDVWGQGTTVTVSS
# VL: not shown
# notes: Tested as an scFv on M13 phage (supernatant or phage prep)
# B8: B031_P1_PH2E8 monoclonal phage prep (scFv displayed on phage) (scFv, V domains shown)
# VH: EVQLLESGGGLVQPGGSLRLSCAASGFTFSSYAMSWVRQAPGKGLEWVSEIDGEGGYTNYADSVKGRFTISRDNSKNTLYLQMNSLRAEDTAVYYCAREGVDYDILTGYYPYGMDVWGQGTTVTVSS
# VL: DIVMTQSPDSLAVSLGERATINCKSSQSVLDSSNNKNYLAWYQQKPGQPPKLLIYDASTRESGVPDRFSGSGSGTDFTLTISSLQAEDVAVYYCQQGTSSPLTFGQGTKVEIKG
# notes: as for B1
# B9: B031_P1_PH2A11 monoclonal phage prep (scFv displayed on phage) (scFv, V domains shown)
# VH: EVQLLESGGGLVQPGGSLRLSCAASGFTFTSTQMSWVRQAPGKGLEWVSEISGYGGSTYYADSVKGRFTISRDNSKNTLYLQMNSLRAEDTAVYYCAKDTEVSGDAFDIWGQGTMVTVSS
# VL: EIVLTQSPGTLSLSPGERATLSCRASQSVDSSNLAWYQQKPGQAPRLLIYGASSRATGIPDRFSGSGSGTDFTLTISRLEPEDFAVYYCQQYRSWPITFGQGTKVEIK
# notes: as for B1
# B10: B031_P1_PH2E4 monoclonal phage prep (scFv displayed on phage) (scFv, V domains shown)
# VH: EVQLLESGGGLVQPGGSLRLSCAASGFTFTSYYMSWVRQAPGKGLEWVSGISGSGDSTSYADSVKGRFTISRDNSKNTLYLQMNSLRAEDTAVYYCAREAGGDYDSGAFDIWGQGTMVTVSS
# VL: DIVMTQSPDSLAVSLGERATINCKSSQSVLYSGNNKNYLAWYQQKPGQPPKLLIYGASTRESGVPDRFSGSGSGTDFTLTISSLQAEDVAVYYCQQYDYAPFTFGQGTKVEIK
# notes: as for B1
# Key:
# [1] = biological target: T1, recombinant extracellular domain of …; experiment: phage ELISA, anti-M13 detection
# Protocol: (§1) A proprietary naïve, semi-synthetic scFv phage display library was screened for antibodies that bind to the CD371 protein by using standard solid phase phage display panning techniques. Briefly, recombinant CD371 was immobilized on a polystyrene surface followed by blocking with about 5% milk and incubation with the phage library. Subsequent washing, elution and phage amplification steps were performed to complete each round of biopanning. Three rounds of panning were completed using amplified CD371 binder-enriched phage pools from the previous round of panning as input for subsequent rounds.
# [2] = biological target: T2, recombinant soluble human CD371 …; experiment: phage ELISA on human CD371, anti-M13 detection
# Protocol: as §1
# [3] = biological target: T3, human CD371 on the cell surface (OCI …); experiment: flow cytometry of monoclonal phage prep on HEK293H cells transfected with human CD371 against wild type HEK293H; detection by anti-M13 mAb and PE anti-mouse
# Protocol: Once selected, positive scFv clones are tested for their binding to CD371 (e.g., human CD371) on cell surfaces by flow cytometry. Briefly, phage clones are incubated with HEK293H cells over-expressing CD371. The cells are washed and then incubated with a M13 coat protein mAb. Cells are washed again and labeled with a PE-labeled anti-mouse Fab₂ prior to flow cytometry.
# [4] = biological target: T2, recombinant soluble human CD371 …; experiment: BLI, Fc fusion captured with anti-Fc antibody, soluble CD371 as analyte
# Source text: (§2) Affinity measurements of the B10 variants determined by biolayer interferometry by capturing the IgG and Fc fusions with anti-Fc antibody, and using soluble CD371 as analyte. For scFv affinity measurements, biotinylated CD371 was captured with streptavidin, and soluble scFv was used as analyte. […] Consistent with the flow cytometry results, the full IgG and the scFv-Fc fusions bound more strongly than the scFvs (Table 8), presumably due to their bivalent interaction, resulting in an avidity effect. Weak binding of the 1B10 scFv in the VH-VL Orientation was observed but a dissociation constant could not be calculated by any curve fit method.
# [5] = biological target: T2, recombinant soluble human CD371 …; experiment: BLI, biotinylated CD371 captured with streptavidin, soluble scFv as analyte
# Source text: as §2
# [6] = biological target: T2, recombinant soluble human CD371 …; experiment: BLI, IgG captured with anti-Fc antibody, soluble CD371 as analyte
# Source text: as §2
binder,measurement,setting,value
B1,binding result,[1],no binding
B2,binding result,[2],binds
same,binding result,[3],binds
same,binding result,[1],no binding
B3,Kd,[4],7 nM
same,koff,[4],0.00206 s⁻¹
same,kon,[4],295000 M⁻¹ s⁻¹
B4,Kd,[5],16 nM
same,koff,[5],0.00952 s⁻¹
same,kon,[5],599000 M⁻¹ s⁻¹
B5,Kd,[4],4.2 nM
same,koff,[4],0.000968 s⁻¹
same,kon,[4],232000 M⁻¹ s⁻¹
B6,Kd,[6],9.5 nM
same,koff,[6],0.00153 s⁻¹
same,kon,[6],160000 M⁻¹ s⁻¹
B7,binding result,[1],no binding
B8,binding result,[1],no binding
B9,binding result,[2],binds
same,binding result,[1],no binding
B10,binding result,[2],binds
same,binding result,[1],no binding
